Target: human CD47 (human, UniProt Q08722 19-323)
Assay: cell-based or functional assay

B1: Hu004-101-αCD3-BITE (bispecific antibody)
chain: EVQLVESGGGLVQPGGSLRLSCAASGFTFSGYGMSWVRQAPGKGLEWVATITSGGTYTYYPDSVKGRFTISRDNAKNSLYLQMNSLRAEDTAVYYCARSLAGNAMDYWGQGTLVTVSSGGGGSGGGGSGGGGSQVQLVQSGAEVKKPGASVKVSCKASGYTFTRYTMHWVRQAPGQGLEWMGYINPSRGYTNYNQKFKDRVTITADKSTSTAYMELSSLRSEDTAVYYCARYYDDHYCLDYWGQGTTVTVSSGGGGSGGGGSGGGGSEIVLTQSPATLSLSPGERATLSCSASSSVSYMNWYQQKPGKAPKRLIYDTSKLASGVPSRFSGSGSGTDFTLTINSLEAEDAATYYCQQWSSNPFTFGQGTKVEIKGGGGSGGGGSGGGGSDIQMTQSPSTLSASVGDRVTITCRASQSISNWLAWYQQKPGEAPKLLIYKASNLESGVPSRFSGSGSGTEFTLTISSLQPDDFATYYCQQFGTFGQGTKVEIK
  tumor killing activity on NCI-H292 cells with T cells (luciferase), compared with clone No. 100: 1.2 fold
  tumor killing activity on NCI-H292 cells with T cells (luciferase), compared with the T cell control group: 4 fold
  tumor killing activity on NCI-H292 cells with T cells (luciferase), compared with the positive control antibody (B6H12-αCD3-BITE): 1.2 fold

B2: Hu004-68-αCD3-BITE (bispecific antibody)
chain: EVQLVESGGGLVQPGGSLRLSCAASGFTFSGYGMSWVRQAPGKGLEWVATITSGGTYTYYPDSVKGRFTISRDNAKNSLYLQMNSLRAEDTAVYYCARSLAGNAMDYWGQGTLVTVSSGGGGSGGGGSGGGGSQVQLVQSGAEVKKPGASVKVSCKASGYTFTRYTMHWVRQAPGQGLEWMGYINPSRGYTNYNQKFKDRVTITADKSTSTAYMELSSLRSEDTAVYYCARYYDDHYCLDYWGQGTTVTVSSGGGGSGGGGSGGGGSEIVLTQSPATLSLSPGERATLSCSASSSVSYMNWYQQKPGKAPKRLIYDTSKLASGVPSRFSGSGSGTDFTLTINSLEAEDAATYYCQQWSSNPFTFGQGTKVEIKGGGGSGGGGSGGGGSEIVLTQSPVTLSVSPGERATLSCRASQGVTSNLAWYQQKPGQAPRLLIYGASTRATGVPARFSGSGSGTEFTLTISSLQSEDFAVYYCQHRGTFGQGTKVDIK
  tumor killing activity on SK-OV3 cells with T cells (luciferase), compared with clone No. 100: 2 fold
  tumor killing activity on SK-OV3 cells with T cells (luciferase), compared with the T cell control group: 3.5 fold
  tumor killing activity on SK-OV3 cells with T cells (luciferase), compared with the positive control antibody (B6H12-αCD3-BITE): 1.5 fold

Reference: patent US20250297002A1 (SHANGHAI SINOBAY BIOTECHNOLOGY, published 2025)
